This note sets out measurements from publication doi:10.1101/2021.11.05.467508v1.

Substrate in this series: NC(=O)c1ccc[n+]([C@@H]2O[C@H](COP(=O)(O)OP(=O)(O)OC[C@H]3O[C@@H](n4cnc5c(N)ncnc54)[C@H](O)[C@@H]3O)[C@@H](O)[C@H]2O)c1
Put plainly: dot blot saturation kinetics, Michaelis-Menten fit. The class given is biochemical, Oryza sativa. The settings on record: H3K9Ac of histone H3 (constant), 0-600 μM NAD+, pH 7.5, 37 °C.

B1: ΔN1 (Oryza sativa Indica Group) (protein)
chain: KHLVVFTGAGISTSSGIPDFRGPKGVWTLQRSGKGVPGASLPFHRAVPTLTHMALVELEKTGRLKFVISQNVDSLHLRSGLPREKLAELHGNSFKEICPSCKKEYLRDFEIETIGLKDTPRRCSDKNCGARLKDTVLDWEDALPPEEMDAAKEQCQTADLVLCLGTSLQITPACNMPLLSLKNGGRVAIVNLQATPKDKKASLVIHGLVDKVIAGVMYMMNLRIPPYIRTDFVQISLRNSVKKKCVRWTLRVTSIHGLRAPLPFLRSVEVSFPERPDMKPVVLKEQPFSLQRETSMNRPFVMLLTFNFSDGCGCSSSSIEWPVDFLKQKDSFVRDRSLVLQELQHAAEHRSRAGQHAILEREGVPRAETSIHALVTNIVRYDTEDSKAAVPMATWMNSNGSLSKRHMDAIGCNPASSKKQKLVATRHRRKGLNPATQKV
For the protein B1, the Km came to 175 ± 27 µM and the catalytic constant (kcat) was determined as 0.0617 ± 0.00367 s⁻¹.

B2: ΔC1 (Oryza sativa Indica Group) (protein)
chain: MSLGYAEKLSYREDVGNVGMPEIFDSPELLHKKIEELAVMVRESKHLVVFTGAGISTSSGIPDFRGPKGVWTLQRSGKGVPGASLPFHRAVPTLTHMALVELEKTGRLKFVISQNVDSLHLRSGLPREKLAELHGNSFKEICPSCKKEYLRDFEIETIGLKDTPRRCSDKNCGARLKDTVLDWEDALPPEEMDAAKEQCQTADLVLCLGTSLQITPACNMPLLSLKNGGRVAIVNLQATPKDKKASLVIHGLVDK
For the protein B2, the Km amounted to 299 ± 43 µM and the catalytic constant (kcat) stood at 0.02 ± 0.0014 s⁻¹.

B3: OsSRT1_cc (CC) (Oryza sativa Indica Group) (protein)
chain: KHLVVFTGAGISTSSGIPDFRGPKGVWTLQRSGKGVPGASLPFHRAVPTLTHMALVELEKTGRLKFVISQNVDSLHLRSGLPREKLAELHGNSFKEICPSCKKEYLRDFEIETIGLKDTPRRCSDKNCGARLKDTVLDWEDALPPEEMDAAKEQCQTADLVLCLGTSLQITPACNMPLLSLKNGGRVAIVNLQATPKDKKASLVIHGLVDK
On to B3, for which the Km was 256 ± 21 µM and the kcat stood at 0.03432 ± 0.00127 s⁻¹.
